Reference: PMC8621594

What was measured:
human C1s (human) [1] = molecular target: human C1s (human)
human C1s (human) [2] = molecular target: human C1s (human); remark: listed apart in the source

recombinant human C1 esterase inhibitor (rhC1INH) from Chinese hamster ovary (CHO) cells, sequence (P05155 23-500): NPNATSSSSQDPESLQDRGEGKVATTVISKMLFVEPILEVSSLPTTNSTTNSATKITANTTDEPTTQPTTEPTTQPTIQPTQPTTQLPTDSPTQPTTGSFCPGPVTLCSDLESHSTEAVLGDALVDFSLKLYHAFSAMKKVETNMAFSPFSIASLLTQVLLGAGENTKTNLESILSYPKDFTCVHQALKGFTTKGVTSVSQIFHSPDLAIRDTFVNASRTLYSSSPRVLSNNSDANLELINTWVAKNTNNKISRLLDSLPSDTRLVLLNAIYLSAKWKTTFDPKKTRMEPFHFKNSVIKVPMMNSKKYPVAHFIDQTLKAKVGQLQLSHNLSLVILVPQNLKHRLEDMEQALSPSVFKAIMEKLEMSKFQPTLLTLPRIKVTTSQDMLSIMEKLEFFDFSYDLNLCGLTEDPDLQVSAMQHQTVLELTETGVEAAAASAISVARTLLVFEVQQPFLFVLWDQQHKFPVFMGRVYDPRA

IC50 of the inhibition of human serum complement (lysis of chicken erythrocytes), rhC1INH 0.0099 to 20.25 IU/mL; printed as activity against human C1-esterase in the blood serum (human C1s (human) [1]): 1.85 IU/mL
Biological Activity, U/mL: inhibition of the C1s subunit, chromogenic method (TECHNOCHROM C1-INH Kit) (human C1s (human) [2]): 175 U/mL
Specific Activity, U/mg: inhibition of the C1s subunit, chromogenic method (TECHNOCHROM C1-INH Kit) (human C1s (human) [2]): 9.5 U/mg
Substance: recombinant human C1 esterase inhibitor (rhC1INH) from Chinese hamster ovary (CHO) cells (from UniProt P05155 23-500) (natural protein)
